From paper PMC7408900, “Cancer-Associated Substitutions in RNA Recognition Motifs of PUF60 and U2AF65 Reveal Residues Required for Correct Folding and 3′ Splice-Site Selection”

Legend:
U2AF65 E162K [1] = target: T1, U2AF65 E162K (human, UniProt P26368 1-475, E162K); assay: EMSA; Kd only in figure; Hill 1.84; binding not apparently reduced; EMSA: 40 mM Tris pH 8.0, 5 mM MgCl2, 0.25 ug/uL heparin, 0.01% Triton, 1 mM DTT, room temperature 20 min; 6% native PAGE in 0.5x TBE at 4 C; 15-17 nM biotin-RNA; details: protein: recombinant; tags: N-terminal GST (pGEX6P); label: 5' biotin; single strand
U2AF65 E162K [2] = target: T1, U2AF65 E162K; assay: EMSA; Kd only in figure; Hill 2.23; binding not apparently reduced; EMSA: 40 mM Tris pH 8.0, 5 mM MgCl2, 0.25 ug/uL heparin, 0.01% Triton, 1 mM DTT, room temperature 20 min; 6% native PAGE in 0.5x TBE at 4 C; 15-17 nM biotin-RNA; details: protein: recombinant; tags: N-terminal GST (pGEX6P); label: 5' biotin; single strand
PUF60 H169Y = PUF60 H169Y (human, UniProt Q9UHX1 1-559, H169Y); assay: EMSA; higher affinity than cr probe; approximate Kd only in figure; Hill 2.4; EMSA: 40 mM Tris pH 8.0, 5 mM MgCl2, 0.25 ug/uL heparin, 0.01% Triton, 1 mM DTT, room temperature 20 min; 6% native PAGE in 0.5x TBE at 4 C; 15-17 nM biotin-RNA; details: protein: recombinant; tags: 2xHis-lipoyl-TEV, removed by TEV; label: 5' biotin; single strand
Chain of PUF60 H169Y (Q9UHX1 whole entry H169Y): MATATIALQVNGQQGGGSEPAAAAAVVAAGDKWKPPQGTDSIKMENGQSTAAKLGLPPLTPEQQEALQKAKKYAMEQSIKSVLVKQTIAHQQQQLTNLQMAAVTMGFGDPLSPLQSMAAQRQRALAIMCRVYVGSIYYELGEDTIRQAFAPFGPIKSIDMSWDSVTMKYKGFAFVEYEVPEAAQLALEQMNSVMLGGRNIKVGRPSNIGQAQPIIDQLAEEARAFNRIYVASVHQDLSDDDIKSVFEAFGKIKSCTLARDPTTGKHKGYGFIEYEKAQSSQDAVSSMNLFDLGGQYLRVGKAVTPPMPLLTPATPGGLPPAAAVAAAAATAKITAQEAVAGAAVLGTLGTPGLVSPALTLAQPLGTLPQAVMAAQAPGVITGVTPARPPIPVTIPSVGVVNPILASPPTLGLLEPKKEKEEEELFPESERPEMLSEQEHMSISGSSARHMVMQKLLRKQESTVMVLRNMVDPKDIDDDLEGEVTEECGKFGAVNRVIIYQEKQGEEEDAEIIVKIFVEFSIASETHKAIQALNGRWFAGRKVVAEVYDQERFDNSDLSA

T1 sequence (P26368 whole entry E162K, one chain of several): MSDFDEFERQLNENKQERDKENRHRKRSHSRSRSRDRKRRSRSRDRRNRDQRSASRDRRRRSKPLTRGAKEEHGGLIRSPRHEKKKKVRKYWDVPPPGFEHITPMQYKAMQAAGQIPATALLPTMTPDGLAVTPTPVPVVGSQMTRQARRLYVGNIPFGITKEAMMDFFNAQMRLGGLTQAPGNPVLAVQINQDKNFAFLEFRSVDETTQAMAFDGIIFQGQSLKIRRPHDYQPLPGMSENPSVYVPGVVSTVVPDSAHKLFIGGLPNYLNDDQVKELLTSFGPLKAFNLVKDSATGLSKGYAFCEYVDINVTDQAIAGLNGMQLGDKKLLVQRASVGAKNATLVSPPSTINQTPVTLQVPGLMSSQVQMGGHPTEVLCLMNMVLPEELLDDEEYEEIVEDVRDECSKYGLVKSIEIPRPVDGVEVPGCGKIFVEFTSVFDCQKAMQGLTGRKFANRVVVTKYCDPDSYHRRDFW

Row | Binder | binding result (U2AF65 E162K [1]) | binding result (U2AF65 E162K [2]) | binding result (PUF60 H169Y)
1 | CUUUUUGUUUCCUUUUUUUUUUAAUUUAAAGG (ssRNA) [UBE2F-cr3'ss-32] | binds |  | 
2 | UUUUUUUGUUUUGUUUUGUGUUUUUUGAUAGA (ssRNA) [UBE2F-can3'ss-32] |  | binds | binds
